From patent publication US7196181B1, “Sequences encoding novel human thyroid peroxidase proteins and polypeptides” (Quest Diagnostics Investments, Inc., priority 1989, dated 2007) come the findings set out here.

Assay [1] deals with secreted truncated recombinant human thyroid peroxidase (hTPO-M1) (human) (UniProt P07202). In words: Scatchard analysis, 125I-TPO.
Assay [2] shares this target. The assay can be described thus: Scatchard analysis; unlabeled TPO competing with 125I-TPO for the Fab.
The target is the same in assay [3]. The assay can be described thus: competition with serum TPO autoantibodies (5 sera); Protein A precipitation.
The target is the same in assay [4]. In words: Scatchard analysis; 125I-TPO with unlabeled TPO, anti-kappa/Sac-cel precipitation.
For assay [5] the target is unchanged. The assay can be described thus: confluent plaque lysis assay; competition of unlabeled TPO with 125I-TPO, densitometry.
Assay [6] has the same target. The assay can be described thus: competition ELISA on secreted TPO; competitor: serum lambda TPO autoantibodies (4 sera).
The target is the same in assay [7]. The assay can be described thus: competition ELISA on secreted TPO; competitor: serum IgG1 TPO autoantibody, first patient. Also noted: concentration or dose not given beside the values. (In general: An ELISA detects its analyte on a solid surface through an enzyme-linked reagent.)
Assay [8] shares this target. In words: competition ELISA on secreted TPO; competitor: serum IgG2 TPO autoantibody, third patient. Set-up: concentration or dose not given beside the values.
For assay [9] the target is unchanged. The assay can be described thus: competition ELISA on secreted TPO; competitor: serum IgG4 TPO autoantibody, first patient. Set-up: concentration or dose not given beside the values.
For assay [10] the target is unchanged. The assay can be described thus: competition ELISA on secreted TPO; competitor: serum IgG1 TPO autoantibody, second patient. Also noted: concentration or dose not given beside the values.
Assay [11] shares this target. In words: competition ELISA on secreted TPO; competitor: serum IgG4 TPO autoantibody, second patient. Set-up: concentration or dose not given beside the values.
For assay [12] the target is unchanged. In words: competition with serum TPO autoantibodies (11 sera); SP1.2 10^-10 to 10^-7 M; Protein A precipitation.
The subject of the next assay is CHO-TPO12b cells. The assay can be described thus: Radiolabeled D-glucosamine incorporation into proteins, control experiment. Format: cell-based, Chinese hamster. Conditions: tunicamycin treatment under similar conditions (0.5 μg/ml, 20 hours); mean±S.D.; n=3. How it is done:
Human TPO contains 5 potential glycosylation sites. It was therefore examined whether carbohydrate moieties are important in the conformation of the epitope(s) in the human TPO antigen(s) recognized by Hashimoto's sera. Western blot analyses were performed on proteins extracted from CHO-TPO12b cells pre-cultured for 20 hours in 0.5 μg/ml tunicamycin, an inhibitor of protein glycosylation. This length of time was chosen because it was the longest tolerated without evidence of significant toxicity (i.e., cell loss). […] In a control experiment, tunicamycin treatment under similar conditions decreased radiolabeled D-glucosamine incorporation into proteins by 56.3±4.8% (mean±S.D.; n=3).

Assay [13] has as its target T1, recombinant human thyroid peroxidase (hTPO), full-length wild-type, expressed in CHO cells (human, UniProt P07202 19-933).
T1 construct: Used on intact CHO cells (FACS), as CHO microsomes (ELISA) and as non-denatured detergent extracts (non-reducing Western blot, immunoprecipitation); also called human TPO; thyroid microsomal antigen
T1 sequence: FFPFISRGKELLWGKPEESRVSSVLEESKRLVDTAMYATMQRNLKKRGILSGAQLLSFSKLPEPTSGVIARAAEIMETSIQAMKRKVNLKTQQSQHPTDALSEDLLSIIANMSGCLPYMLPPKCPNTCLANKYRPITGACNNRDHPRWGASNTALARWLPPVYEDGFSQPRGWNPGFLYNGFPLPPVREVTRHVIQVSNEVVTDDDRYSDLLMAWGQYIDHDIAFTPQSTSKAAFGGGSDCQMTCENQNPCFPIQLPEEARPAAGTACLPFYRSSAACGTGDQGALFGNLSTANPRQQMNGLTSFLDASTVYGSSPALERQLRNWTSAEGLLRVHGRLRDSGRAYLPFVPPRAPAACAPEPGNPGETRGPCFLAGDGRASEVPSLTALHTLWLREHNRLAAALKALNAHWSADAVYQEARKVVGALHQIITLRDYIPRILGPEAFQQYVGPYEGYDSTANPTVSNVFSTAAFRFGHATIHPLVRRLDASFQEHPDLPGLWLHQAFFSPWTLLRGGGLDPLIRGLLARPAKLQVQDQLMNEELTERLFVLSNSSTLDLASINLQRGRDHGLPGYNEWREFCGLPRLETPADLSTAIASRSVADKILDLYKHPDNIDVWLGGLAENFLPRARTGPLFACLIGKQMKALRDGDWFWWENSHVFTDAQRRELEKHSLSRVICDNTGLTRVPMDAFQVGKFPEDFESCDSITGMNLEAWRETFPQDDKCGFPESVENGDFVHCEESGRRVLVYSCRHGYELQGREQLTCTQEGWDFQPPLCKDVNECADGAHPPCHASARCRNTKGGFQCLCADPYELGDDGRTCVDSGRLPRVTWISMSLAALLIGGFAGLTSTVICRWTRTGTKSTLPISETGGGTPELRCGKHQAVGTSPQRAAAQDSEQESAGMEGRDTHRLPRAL
The assay can be described thus: lectin affinity chromatography of 35S-labeled CHO-TPO extract, then immunoprecipitation.
Procedure: After incubation overnight at 4° C., 150 µl of IgG-Sorb were added, and the tubes rotated end over end for 2–4 hours at room temperature. The IgG-Sorb was recovered by centrifugation for 5 minutes at 10,000× g, washed 5 times with 1 ml of immunoprecipitation buffer, and then once with 10 mM Tris, pH 7.5, 2 mM EDTA and 0.5% Na dodecylsufate. Finally, the pellet was resuspended in Laemmli sample buffer (31), with 50 mM dithiothreitol (DTT), boiled for 3 minutes, and applied to 6% polyacrylamide gels. […] Autoradiography was performed with Kodak XAR-5 film.
After application to the columns, the unbound proteins were removed by washing with 50 ml of the foregoing Buffer A's. […] Fractions of 0.5 ml were collected and counted for radioactivity in a liquid scintillation counter.

The test system of another assay is Thyroid Peroxidase (TPO). The assay can be described thus: Assay of human TPO enzymatic activity (guaiacol and iodide peroxidase). It is filed as biochemical. Conditions: conditioned medium of transfected CHO cells, collected after 3 days of culture. How it is done: […] P., et al., Endocrinol. 116:1493-1500 (1985)). In later experiments, a more rapid method was used. Cells were suspended with a rubber scraper in 1.5 ml calcium-magnesium free Dulbecco's phosphate-buffered saline and protein determined on a 5 ul aliquot. […] […] One guaiacol unit is defined as a _A470 of 1.0 per minute which is equivalent to 150 nmols guaiacol oxidized per minute (Chance, B., et al., In Methods in Enzymology (Colonic. S. P., et al.), Academic Press, New York 2:164-[…] (1955)). One unit of iodide peroxidase is defined as a _A353 of 1.0 per minute which corresponds to 43 nmols I3-formed per minute (Magnusson, R. P., et al., J. Biol. Chem. 259:13783-13790 (1984)).

Several values for one entry are separate records, joined by “and”; a condition that tells them apart may be missing. Equal values may be shown once.

In the case of human TPO-specific Fab fragment SP1.2, the Kd (as a rule, the free concentration of one partner at which half of the binding sites on the other are occupied at equilibrium, for simple one-to-one binding) was 0.06 nM and 0.08 nM in assay [1]; 0.083 nM in assay [2]; 0.08 nM in assay [4]; 1 nM in assay [5]. For the same molecule, the mean % inhibition of serum autoantibody binding to 125I-TPO in [3] was 55%. Further, the % inhibition – broadly, the relative decrease from the control value, in per cent – in assay [6] is 12 to 18%; in assay [7] it was 14%; in assay [8] it was 29%; in assay [9] it was 77%; in [10], 62%; in assay [11], 13%. Besides, the maximum % inhibition of serum autoantibody binding to 125I-TPO in [12] fell in the range of 36 to 72%.

For tunicamycin, the “Decrease of radiolabeled D-glucosamine incorporation into proteins” value in the assay on CHO-TPO12b cells amounted to 56.3±4.8%.

B1: peanut agglutinin (agarose-bound lectin) (other, UniProt P02872 24-259, looked up)
chain: AETVSFNFNSFSEGNPAINFQGDVTVLSNGNIQLTNLNKVNSVGRVLYAMPVRIWSSATGNVASFLTSFSFEMKDIKDYDPADGIIFFIAPEDTQIPAGSIGGGTLGVSDTKGAGHFVGVEFDTYSNSEYNDPPTDHVGIDVNSVDSVKTVPWNSVSGAVVKVTVIYDSSTKTLSVAVTNDNGDITTIAQVVDLKAKLPERVKFGFSASGSLGGRQIHLIRSWSFTSTLITTTRRS
notes: also called PNA
In the case of B1, the binding result in assay [13] is recorded as “no binding”.

B2: Ulex europaeus lectin (agarose-bound) (other)
chain: SDDLSFKFKNFSQNGKDLSFQGDASVIETGVLQLNKVGNNLPDETGGIARYIAPIHIWNCNTGEVASFITSFSFFMETSANPKAATDGLTFFLAPPDSPLRRAGGYFGLFEDTKDNDSSYQTVAVEFDTIGSPVNFDDPGFPHIGIDVNRVKSINAERWNKRYGLNNVANVEIIYEASSKTLTASLTYPSDQTSISVTSIVDLKEILPEWVSVGFSGGTYIGRQATHEVLNWYFTSNLINTNS
modifications: Lectin immobilised on agarose beads. The native lectin is a glycosylated homodimer; one subunit is given.
notes: also called UEA-F
Consider B2, for which the binding result in assay [13] was “no binding”.

B3: wild-type hTPO: full-length membrane-associated recombinant human TPO expressed in CHO cells (protein, UniProt P07202 1-933, looked up)
chain: MRALAVLSVTLVMACTEAFFPFISRGKELLWGKPEESRVSSVLEESKRLVDTAMYATMQRNLKKRGILSPAQLLSFSKLPEPTSGVIARAAEIMETSIQAMKRKVNLKTQQSQHPTDALSEDLLSIIANMSGCLPYMLPPKCPNTCLANKYRPITGACNNRDHPRWGASNTALARWLPPVYEDGFSQPRGWNPGFLYNGFPLPPVREVTRHVIQVSNEVVTDDDRYSDLLMAWGQYIDHDIAFTPQSTSKAAFGGGADCQMTCENQNPCFPIQLPEEARPAAGTACLPFYRSSAACGTGDQGALFGNLSTANPRQQMNGLTSFLDASTVYGSSPALERQLRNWTSAEGLLRVHARLRDSGRAYLPFVPPRAPAACAPEPGIPGETRGPCFLAGDGRASEVPSLTALHTLWLREHNRLAAALKALNAHWSADAVYQEARKVVGALHQIITLRDYIPRILGPEAFQQYVGPYEGYDSTANPTVSNVFSTAAFRFGHATIHPLVRRLDASFQEHPDLPGLWLHQAFFSPWTLLRGGGLDPLIRGLLARPAKLQVQDQLMNEELTERLFVLSNSSTLDLASINLQRGRDHGLPGYNEWREFCGLPRLETPADLSTAIASRSVADKILDLYKHPDNIDVWLGGLAENFLPRARTGPLFACLIGKQMKALRDGDWFWWENSHVFTDAQRRELEKHSLSRVICDNTGLTRVPMDAFQVGKFPEDFESCDSITGMNLEAWRETFPQDDKCGFPESVENGDFVHCEESGRRVLVYSCRHGYELQGREQLTCTQEGWDFQPPLCKDVNECADGAHPPCHASARCRNTKGGFQCLCADPYELGDDGRTCVDSGRLPRVTWISMSLAALLIGGFAGLTSTVICRWTRTGTKSTLPISETGGGTPELRCGKHQAVGTSPQRAAAQDSEQESAGMEGRDTHRLPRAL
modifications: full-length
notes: full-length membrane-associated recombinant human TPO expressed in CHO cells
Regarding B3, the “TPO activity in culture medium” value in the assay with Thyroid Peroxidase (TPO) is listed as “no detectable enzymatic activity”.

B4: mutated form of hTPO: truncated, secreted recombinant human TPO (848 amino acids) from CHO-TPO-M1-K1 cells (protein)
chain: FFPFISRGKELLWGKPEESRVSSVLEESKRLVDTAMYATMQRNLKKRGILSGAQLLSFSKLPEPTSGVIARAAEIMETSIQAMKRKVNLKTQQSQHPTDALSEDLLSIIANMSGCLPYMLPPKCPNTCLANKYRPITGACNNRDHPRWGASNTALARWLPPVYEDGFSQPRGWNPGFLYNGFPLPPVREVTRHVIQVSNEVVTDDDRYSDLLMAWGQYIDHDIAFTPQSTSKAAFGGGSDCQMTCENQNPCFPIQLPEEARPAAGTACLPFYRSSAACGTGDQGALFGNLSTANPRQQMNGLTSFLDASTVYGSSPALERQLRNWTSAEGLLRVHGRLRDSGRAYLPFVPPRAPAACAPEPGNPGETRGPCFLAGDGRASEVPSLTALHTLWLREHNRLAAALKALNAHWSADAVYQEARKVVGALHQIITLRDYIPRILGPEAFQQYVGPYEGYDSTANPTVSNVFSTAAFRFGHATIHPLVRRLDASFQEHPDLPGLWLHQAFFSPWTLLRGGGLDPLIRGLLARPAKLQVQDQLMNEELTERLFVLSNSSTLDLASINLQRGRDHGLPGYNEWREFCGLPRLETPADLSTAIASRSVADKILDLYKHPDNIDVWLGGLAENFLPRARTGPLFACLIGKQMKALRDGDWFWWENSHVFTDAQRRELEKHSLSRVICDNTGLTRVPMDAFQVGKFPEDFESCDSITGMNLEAWRETFPQDDKCGFPESVENGDFVHCEESGRRVLVYSCRHGYELQGREQLTCTQEGWDFQPPLCKDVNECADGAHPPCHASARCRNTKGGFQCLCADPYELGDDGRTCVDSGRLPRVT
For B4, the “TPO activity in culture medium” value in the assay with Thyroid Peroxidase (TPO) came to 1.0 guaiacol U/10 ml medium.
